From patent US20210355178A1 (UNIVERSIT T ULM, published 2021)

How the values were obtained:
complement factor C3b [1] = molecular target: T1, complement factor C3b (UniProt P01024 23-667; P01024 749-1663); assay: SPR, C3b amine-coupled (5610 RU), DAF-Fc as analyte
Experimental: 2600 RU of Bb were deposited by standard amine coupling onto a carboxymethyldextran sensorchip. Running buffer was PBS supplemented with 1 mM MgCl2 and 0.005% Tween 20. […] 5610 RU of C3b were deposited by standard amine coupling onto a carboxymethyldextran sensorchip. Running buffer was PBS supplemented with 1 mM MgCl2 and 0.005% Tween 20.

complement factor C3b [2] = molecular target: T1, complement factor C3b; assay: SPR, C3b amine-coupled (4030 RU), 1:1 steady-state affinity fit
Excerpt: FIG. 3: C3b binding activity of miniFH and Fc-fusion variants of miniFH. Surface plasmon resonance (SPR) sensorgrams for C3b binding of miniFH (A), miniFH-Fc (C), Fc-miniFH (E) and Fc-miniFH-short (G) (assayed at a concentration range as specified; 4030 RU of C3b were deposited by amine). (B) Respective concentration response plots with fitted affinity (1:1 steady-state affinity fit) for C3b binding of miniFH (B), miniFH-Fc (D), Fc-miniFH (F) and Fc-miniFH-short (H) are shown. The affinity equilibrium constant is stated in the panes.
Surface plasmon resonance experiments were performed at 25° C. on a Reichert SR7500DC SPR instrument in PBS containing 0.005% Tween20 at a flow of 25 μl/min. 4030 response units (RU) of C3b were immobilized onto a carboxymethyldextran (CMD) 500 sensor chip (Xantec) and binding to amine coupled C3b was assayed. The analytes were injected at the indicated concentrations. To probe binding, a concentration series of miniFH or Fc fusions of miniFH were injected (at 25 μl/min for 2.5 min) followed by buffer flow for 300 s and a regeneration step consisting of an injection of 1 M NaCl for 30 s. The highest concentration of each series was injected twice to assess reproducibility. […]

T1 sequence (P01024 23-667 limits assumed, chain 1 of 2): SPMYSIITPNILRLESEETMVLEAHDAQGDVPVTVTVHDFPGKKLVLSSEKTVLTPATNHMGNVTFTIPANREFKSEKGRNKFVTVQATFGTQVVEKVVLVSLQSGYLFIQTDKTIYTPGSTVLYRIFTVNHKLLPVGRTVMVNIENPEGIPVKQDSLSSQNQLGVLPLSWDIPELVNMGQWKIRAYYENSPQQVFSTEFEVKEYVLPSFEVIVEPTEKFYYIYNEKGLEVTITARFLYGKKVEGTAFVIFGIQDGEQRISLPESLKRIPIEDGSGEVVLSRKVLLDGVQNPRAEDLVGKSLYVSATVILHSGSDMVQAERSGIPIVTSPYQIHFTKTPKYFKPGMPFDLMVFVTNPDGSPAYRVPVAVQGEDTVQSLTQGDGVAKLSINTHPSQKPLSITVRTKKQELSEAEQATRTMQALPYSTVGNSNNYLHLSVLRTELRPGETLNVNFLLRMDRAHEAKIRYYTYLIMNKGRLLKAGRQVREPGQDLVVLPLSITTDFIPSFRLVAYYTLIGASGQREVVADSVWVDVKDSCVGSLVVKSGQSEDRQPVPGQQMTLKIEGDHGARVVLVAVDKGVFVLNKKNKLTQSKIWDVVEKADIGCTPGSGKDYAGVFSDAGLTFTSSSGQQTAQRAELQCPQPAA
T1 sequence (P01024 749-1663 limits assumed, chain 2 of 2): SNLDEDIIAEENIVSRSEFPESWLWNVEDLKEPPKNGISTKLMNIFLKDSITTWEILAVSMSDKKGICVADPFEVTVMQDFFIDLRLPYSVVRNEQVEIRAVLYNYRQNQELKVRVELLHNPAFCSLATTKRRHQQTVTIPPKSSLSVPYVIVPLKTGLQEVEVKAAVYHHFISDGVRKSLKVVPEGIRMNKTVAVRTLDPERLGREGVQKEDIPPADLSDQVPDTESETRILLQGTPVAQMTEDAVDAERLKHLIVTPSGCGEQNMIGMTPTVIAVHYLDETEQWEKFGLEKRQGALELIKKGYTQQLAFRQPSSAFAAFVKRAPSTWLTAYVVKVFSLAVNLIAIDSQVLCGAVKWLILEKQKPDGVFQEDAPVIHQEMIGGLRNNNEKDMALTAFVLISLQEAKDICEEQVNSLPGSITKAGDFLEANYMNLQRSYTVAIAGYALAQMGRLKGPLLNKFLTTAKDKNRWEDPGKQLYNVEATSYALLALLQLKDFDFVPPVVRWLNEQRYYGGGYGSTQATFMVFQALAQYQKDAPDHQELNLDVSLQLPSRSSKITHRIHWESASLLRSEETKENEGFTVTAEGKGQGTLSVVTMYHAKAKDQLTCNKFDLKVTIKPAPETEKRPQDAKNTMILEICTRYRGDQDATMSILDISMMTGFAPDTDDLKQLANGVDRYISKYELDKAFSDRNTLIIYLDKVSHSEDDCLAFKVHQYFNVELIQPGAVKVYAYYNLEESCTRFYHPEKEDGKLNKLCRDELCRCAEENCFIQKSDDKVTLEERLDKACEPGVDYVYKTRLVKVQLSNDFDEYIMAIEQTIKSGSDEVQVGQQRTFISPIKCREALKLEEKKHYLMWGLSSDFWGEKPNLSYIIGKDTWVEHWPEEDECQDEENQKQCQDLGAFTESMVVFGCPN

Row | binding result (complement factor C3b [1]) | fold increased affinity over miniFH (complement factor C3b [2]) | Binder
1 | no binding | – | DAF-Fc (Fc fusion, not shown: Fc module at the C-terminus) DCGLPPDVPNAQPALEGRTSFPEDTVITYKCEESFVKIPGEKDSVICLKGSQWSDIEEFCNRSCEVPTRLNSASLKQPYITQNYFPVGTVVEYECRPGYRREPSLSPKLTCLQNLKWSTAVEFCKKKSCPNPGEIRNGQIDVPGGILFGATISFSCNTGYKLFGSTSSFCLISGSSVQWSDPLPECREIYCPAPPQIDNGIIQGERDHYGYRQSVTYACNKGFTMIGEHSIYCTVNNDEGEWSGPPPECRGGGGGGPGCPAPELLGGPSVFLFPPKPKDTLMISRTPEVTCVVVDVSHEDPEVKFNWYVDGVEVHNAKTKPREEQYQSTYRVVSVLTVLHQDWLNGKEYKCKVSNKALPAPIEKTISKAKGQPREPQVYTLPPSREEMTKNQVSLTCLVKGFYPSDIAVEWESNGQPENNYKTTPPVLDSDGSFFLYSKLTVDKSRWQQGNVFSCSVMHEALHNHYTQKSLSLSPGGGGGGG
2 | – | ~2 fold | miniFH-Fc (Fc fusion, Produced in Pichia pastoris) EDCNELPPRRNTEILTGSWSDQTYPEGTQAIYKCRPGYRSLGNIIMVCRKGEWVALNPLRKCQKRPCGHPGDTPFGTFTLTGGNVFEYGVKAVYTCNEGYQLLGEINYRECDTDGWTNDIPICEVVKCLPVTAPENGKIVSSAMEPDREYHFGQAVRFVCNSGYKIEGDEEMHCSDDGFWSKEKPKCVEISCKSPDVINGSPISQKIIYKENERFQYKCNMGYEYSERGDAVCTESGWRPLPSCEEAGGGGGGGGGGGGGKCGPPPPIDNGDITSFPLSVYAPASSVEYQCQNLYQLEGNKRITCRNGQWSEPPKCLHPCVISREIMENYNIALRWTAKQKLYSRTGESVEFVCKRGYRLSSRSHTLRTTCWDGKLEYPTCAGPGGGGGPGCPAPELLGGPSVFLFPPKPKDTLMISRTPEVTCVVVDVSHEDPEVKFNWYVDGVEVHNAKTKPREEQYQSTYRVVSVLTVLHQDWLNGKEYKCKVSNKALPAPIEKTISKAKGQPREPQVYTLPPSREEMTKNQVSLTCLVKGFYPSDIAVEWESNGQPENNYKTTPPVLDSDGSFFLYSKLTVDKSRWQQGNVFSCSVMHEALHNHYTQKSLSLSPGGGGGGG
